Measurements reported in US20240415974A1.
Residue numbers refer to the chain shown, from its start. Numbers in names are those of the source.

B1: T028100075-bis-M6P(1x) (bispecific antibody)
chain: DVQLVESGGGVVQPGGSLRLSCAASGFTFRSFGMSWVRQAPGKGPEWVSSISGSGSDTLYADSVKGRFTISRDNSKNTLYLQMNSLRPEDTALYYCTIGGSLSRSSQGTLVTVSSGGGGSGGGGSGGGGSEVQLVESGGGLVQAGGSLSISCAASGGSLSNYVLGWFRQAPGKEREFVAAINWRGDITIGPPNVEGRFTISRDNAKNTGYLQMNSLAPDDTAVYYCGAGTPLNPGAYIYDWSYDYWGRGTLVTVSSGGC
modifications: bisM6P-PEG4-maleimide conjugated to the thiol of the C-terminal Cys (-GGC) of the building block (SEQ ID NO.: 175); DOL by mass spec 1.00
B2: T028100069-bis-M6P(3x) (bispecific antibody)
chain: DVQLVESGGGVVQPGGSLRLSCAASGFTFRSFGMSWVRQAPGKGPEWVSSISGSGSDTLYADSVKGRFTISRDNSKNTLYLQMNSLRPEDTALYYCTIGGSLSRSSQGTLVTVSSGGGGSGGGGSGGGGSEVQLVESGGGLVQAGGSLSISCAASGGSLSNYVLGWFRQAPGCEREFVAAINWRGDITIGPPNVEGRFTISRDNAKNTGYLQMNSLAPDDTAVYYCGAGTPLNPGAYIYCWSYDYWGCGTLVTVSS
modifications: bisM6P-PEG4-maleimide conjugated to the thiols of the three engineered Cys of the ISVD-based building block (Kabat positions 43, 100f and 105 of SEQ ID NO.: 80); DOL by mass spec 2.90
B3: T028100070-bis-M6P(3x) (bispecific antibody)
chain: B2 chain with K206C, G235C, C240D, C248R
modifications: bisM6P-PEG4-maleimide conjugated to the thiols of the three engineered Cys of the ISVD-based building block (Kabat positions 43, 75 and 100a of SEQ ID NO.: 81); DOL by mass spec 2.84

Experiments:
[1] = biological target: mannose 6-phosphate receptor (M6PR) on K-562 cells; assay: cell-based or functional assay
[2] = biological target: mannose 6-phosphate receptor (M6PR) on K-562 cells; assay: flow cytometry on K-562 cells expressing M6PR; reference T028100075-bis-M6P(1x)
[3] = biological target: mannose 6-phosphate receptor (M6PR) on K-562 cells; assay: flow cytometry on K-562 cells expressing M6PR, detection with HSA-biotin and streptavidin-phycoerythrin

Binder | decrease in internalization potency on K-562 cells against the 3x bis-M6P conjugates [1] [fold] | internalization potency on K-562 cells, EC50 [M] (HSA-pHAb, flow cytometry) [1] | increase in specific cell binding against the molecule with a single bisM6P (DOL 1) (orders of magnitude) [2] | EC50 [3] [nM]
B1 | 20 | 5.64e-08 | – | –
B2 | – | 3.86e-09 | > 2 | 0.143
B3 | – | 2.88e-09 | > 2 | 0.154
